Experimental data published in publication PMC5698441, “Molecular basis of AKAP79 regulation by calmodulin” (Nature Communications, 2017).

Molecular target: T1, biotin-CaM and GST-AKAP79 (1–153) (Homo sapiens, UniProt P0DP23)
T1 construct: made in house; host or cells: E. coli BL21 (DE3)
Assay: alphascreen disruption of biotin-CaM / GST-AKAP79 (1–153) interaction
Assay type: binding
Conditions: 20-mer scanning peptides at 100 nM; biotin-CaM 10 nM; 1 mM CaCl2, 20 mM HEPES pH 7.2; preincubation 1 h 22 °C; mean ± s.e.m., n = 5 (Fig. 2d)
Procedure: To examine whether this could correspond to the CaM-binding site in AKAP79, we used a complementary method - the amplified luminescent proximity homogenous assay (alpha)-screen technique-to scan the N-terminus of AKAP79 for sequences that could mediate interactions with CaM. […] We screened peptides derived from the N-terminus of AKAP79 for their ability to reduce alphascreen emission. […] The effect of each peptide at 100 nM concentration on CaM–AKAP79 (1–153) interaction is shown in Fig. 2d as log2 emission ratios (with/without peptide).
To determine whether these basic amino acids contribute to the interaction, we compared how effectively peptides of different lengths could disrupt CaM–AKAP79 interaction.
In general, assays were performed in 50 μL buffer consisting of 20 mM HEPES pH 7.2, 100 mM NaCl, 0.1% BSA, 1 mM EGTA, 5 mM MgCl2, 1 mM CaCl2. CaCl2 was excluded where appropriate.
To determine the K Ca for CaM binding to calcineurin and AKAP79, the CaCl2 concentration was varied to produce different free Ca^2+ concentrations on the basis of calculations using maxchelator[43]. After initial incubations, anti-GST acceptor beads (PerkinElmer) were added at 10 ng/μL. […] After 1 h further incubation with vigorous shaking in a thermomixer (1200 r.p.m.), light emission at 568 nm was measured following excitation with a 680 nm laser using a Mithras LB 940 (Berthold Technologies). […]

- alphascreen signal compared to untreated samples (emission ratio with/without peptide): did not
Substance: D: 20-mer peptide of the AKAP79 N-terminus walk, positions 36-55 (CFKRRKKAAKALKPKAGSEA; UniProt P24588 36-55, looked up, fragment)
